pKd: −log10 of the molar value.
Target: GmPUB13(252-630) (soybean (Glycine max))
Test: ITC

Question: How did the pKd turn out when “Avr1d (purified protein for ITC and gel filtration) (natural protein)” was run?
Answer: 7.05
